This note sets out measurements from the supplement of paper PMC11246515.

The nature of this data set: total protein half-life in vivo (active degradation + dilution); higher = more stable protein.
[1] abbreviates: E. coli NCM3722 delta-clpP delta-lon delta-hslV, growth: N-lim chemostat, doubling time 6 h.
The mark [2] stands for this setting: E. coli NCM3722 delta-clpP, growth: N-lim chemostat, doubling time 6 h.
[3] abbreviates: E. coli NCM3722 delta-hslV, growth: N-lim chemostat, doubling time 6 h.
The mark [4] stands for this setting: E. coli NCM3722 delta-smpB, growth: N-lim chemostat, doubling time 6 h.
Setting [5] is: wild type E. coli NCM3722, growth: C-lim chemostat, doubling time 6 h.
[6] abbreviates: wild type E. coli NCM3722, growth: C-lim chemostat, doubling time 12 h.
Where [7] appears, read: wild type E. coli NCM3722, growth: N-lim chemostat, doubling time 6 h.
[8] abbreviates: wild type E. coli NCM3722, growth: N-lim chemostat, doubling time 12 h.
Setting [9] is: wild type E. coli NCM3722, growth: P-lim chemostat, doubling time 6 h.
Setting [10] is: wild type E. coli NCM3722, growth: P-lim chemostat, doubling time 12 h.
The mark [11] stands for this setting: wild type E. coli NCM3722, growth: C-lim chemostat, doubling time 3 h.
The mark [12] stands for this setting: E. coli NCM3722 delta-lon, growth: N-lim chemostat, doubling time 6 h.

± gives the standard deviation of the averaged measurements. Where only a bound is given, the exact number is not on record here.

For “MYKQAVILLLMLFTASVSAALPARYMQTIENAAVWAQIGDKMVTVGNIRAGQIIAVEPTAASYYAFNFGFGKGFIDKGHLEPVQGRQKVEDGLGDLNKPLSNQNLVTWKDTPVYNAPSAGSAPFGVLADNLRYPILHKLKDRLNQTWYQIRIGDRLAYISALDAQPDNGLSVLTYHHILRDEENTRFRHTSTTTSVRAFNNQMAWLRDRGYATLSMVQLEGYVKNKINLPARAVVITFDDGLKSVSRYAYPVLKQYGMKATAFIVTSRIKRHPQKWNPKSLQFMSVSELNEIRDVFDFQSHTHFLHRVDGYRRPILLSRSEHNILFDFARSRRALAQFNPHVWYLSYPFGGFNDNAVKAANDAGFHLAVTTMKGKVKPGDNPLLLKRLYILRTDSLETMSRLVSNQPQG”, the “total protein half-life in vivo” value worked out at 5.86 ± 0.059 h under setting [1]; 5.98 ± 0.23 h under setting [2]; 5.24 ± 0.3 h under setting [3]; 5.73 ± 0.38 h under setting [4]; 4.78 h under setting [5]; 12.5 h under setting [6]. Besides, the “total protein half-life in vivo” value is, setting by setting: under setting [7], 5.58 ± 0.86 h; under setting [8], 11.6 ± 3 h; under setting [9], 5.64 h; under setting [10], 12.4 h.
On to “MTTKNMNTPPGSTQENEIDLLRLVGELWDHRKFIISVTALFTLIAVAYSLLSTPIYQADTLVQVEQKQGNAILSGLSDMIPNSSPESAPEIQLLQSRMILGKTIAELNLRDIVEQKYFPIVGRGWARLTKEKPGELAISWMHIPQLNGQDQQLTLTVGENGHYTLEGEEFTVNGMVGQRLEKDGVALTIADIKAKPGTQFVLSQRTELEAINALQETFTVSERSKESGMLELTMTGDDPQLITRILNSIANNYLQQNIARQAAQDSQSLEFLQRQLPEVRSELDQAEEKLNVYRQQRDSVDLNLEAKAVLEQIVNVDNQLNELTFREAEISQLYKKDHPTYRALLEKRQTLEQERKRLNKRVSAMPSTQQEVLRLSRDVEAGRAVYLQLLNRQQELSISKSSAIGNVRIIDPAVTQPQPVKPKKALNVVLGFILGLFISVGAVLARAMLRRGVEAPEQLEEHGISVYATIPMSEWLDKRTRLRKKNLFSNQQRHRTKNIPFLAVDNPADSAVEAVRALRTSLHFAMMETENNILMITGATPDSGKTFVSSTLAAVIAQSDQKVLFIDADLRRGYSHNLFTVSNEHGLSEYLAGKDELNKVIQHFGKGGFDVITRGQVPPNPSELLMRDRMRQLLEWANDHYDLVIVDTPPMLAVSDAAVVGRSVGTSLLVARFGLNTAKEVSLSMQRLEQAGVNIKGAILNGVIKRASTAYSYGYNYYGYSYSEKE”, for which the “total protein half-life in vivo” value is, setting by setting: under setting [1], 4.74 ± 1.7 h; under setting [11], 1.74 ± 0.34 h; under setting [5], 3.3 h; under setting [6], 7.46 h; under setting [9], 1.53 ± 0.24 h.
In the case of “MLNRYPLWKYVMLIVVIVIGLLYALPNLFGEDPAVQITGARGVAASEQTLIQVQKTLQEEKITAKSVALEEGAILARFDSTDTQLRAREALMGVMGDKYVVALNLAPATPRWLAAIHAEPMKLGLDLRGGVHFLMEVDMDTALGKLQEQNIDSLRSDLREKGIPYTTVRKENNYGLSITFRDAKARDEAIAYLSKRHPDLVISSQGSNQLRAVMSDARLSEAREYAVQQNINILRNRVNQLGVAEPVVQRQGADRIVVELPGIQDTARAKEILGATATLEFRLVNTNVDQAAAASGRVPGDSEVKQTREGQPVVLYKRVILTGDHITDSTSSQDEYNQPQVNISLDSAGGNIMSNFTKDNIGKPMATLFVEYKDSGKKDANGRAVLVKQEEVINIANIQSRLGNSFRITGINNPNEARQLSLLLRAGALIAPIQIVEERTIGPTLGMQNIEQGLEACLAGLLVSILFMIIFYKKFGLIATSALIANLILIVGIMSLLPGATLSMPGIAGIVLTLAVAVDANVLINERIKEELSNGRTVQQAIDEGYRGAFSSIFDANITTLIKVIILYAVGTGAIKGFAITTGIGVATSMFTAIVGTRAIVNLLYGGKRVKKLSI [P0AG90]”, the “total protein half-life in vivo” value reads like this: under setting [1], 7.05 ± 0.45 h; under setting [2], 6.58 ± 0.21 h; under setting [3], 6.5 ± 0.39 h; under setting [12], 6.33 ± 0.36 h; under setting [4], 5.92 ± 0.46 h; under setting [11], 3.51 ± 0.36 h. The “total protein half-life in vivo” value worked out at 5.86 ± 0.32 h under setting [5]; 12.6 ± 2 h under setting [6]; 6.19 ± 0.036 h under setting [7]; 12.1 ± 0.19 h under setting [8]; 6.36 ± 0.41 h under setting [9]; 12.2 ± 0.8 h under setting [10].
As to “MSIDRTSPLKPVSTVQPRETTDAPVTNSRAAKTTASTSTSVTLSDAQAKLMQPGSSDINLERVEALKLAIRNGELKMDTGKIADALINEAQQDLQSN [P0AEM4]”, the “total protein half-life in vivo” value under setting [11] was 0.693 ± 0.42 h, the “total protein half-life in vivo” value under setting [5] came to 0.442 h and the “total protein half-life in vivo” value under setting [6] turned out to be 0.862 ± 0.19 h.
With “MKTLIVSTVLAFITFSAQAAAFQVTSNEIKTGEQLTTSHVFSGFGCEGGNTSPSLTWSGVPEGTKSFAVTVYDPDAPTGSGWWHWTVVNIPATVTYLPVDAGRRDGTKLPTGAVQGRNDFGYAGFGGACPPKGDKPHHYQFKVWALKTEKIPVDSNSSGALVGYMLNANKIATAEITPVYEIK”, the “total protein half-life in vivo” value under setting [1] was 4.45 ± 0.4 h; the “total protein half-life in vivo” value under setting [2] worked out at 4.74 ± 0.75 h; the “total protein half-life in vivo” value under setting [12] turned out to be 5.18 ± 0.93 h; the “total protein half-life in vivo” value under setting [4] came out at 5.046 ± 0.013 h; the “total protein half-life in vivo” value under setting [11] worked out at 2.24 ± 0.28 h; the “total protein half-life in vivo” value under setting [5] came to 3.37 h. Also, the “total protein half-life in vivo” value under setting [6] was 7.12 ± 3.5 h; the “total protein half-life in vivo” value under setting [7] is 6.15 ± 0.075 h; the “total protein half-life in vivo” value under setting [8] amounted to 10.9 ± 0.48 h; the “total protein half-life in vivo” value under setting [9] turned out to be 6.28 ± 1.6 h; the “total protein half-life in vivo” value under setting [10] worked out at 10.3 ± 1.9 h.
On to “MKNIKFSLAWQILFAMVLGILLGSYLHYHSDSRDWLVVNLLSPAGDIFIHLIKMIVVPIVISTLVVGIAGVGDAKQLGRIGAKTIIYFEVITTVAIILGITLANVFQPGAGVDMSQLATVDISKYQSTTEAVQSSSHGIMGTILSLVPTNIVASMAKGEMLPIIFFSVLFGLGLSSLPATHREPLVTVFRSISETMFKVTHMVMRYAPVGVFALIAVTVANFGFSSLWPLAKLVLLVHFAILFFALVVLGIVARLCGLSVWILIRILKDELILAYSTASSESVLPRIIEKMEAYGAPVSITSFVVPTGYSFNLDGSTLYQSIAAIFIAQLYGIDLSIWQEIILVLTLMVTSKGIAGVPGVSFVVLLATLGSVGIPLEGLAFIAGVDRILDMARTALNVVGNALAVLVIAKWEHKFDRKKALAYEREVLGKFDKTADQ”, for which the “total protein half-life in vivo” value under setting [2] turned out to be 2.63 h; the “total protein half-life in vivo” value under setting [11] was 2.87 h; the “total protein half-life in vivo” value under setting [5] turned out to be 4.95 h; the “total protein half-life in vivo” value under setting [6] was more than 16 h; the “total protein half-life in vivo” value under setting [10] turned out to be 6.24 h.
For “MATNLRGVMAALLTPFDQQQALDKASLRRLVQFNIQQGIDGLYVGGSTGEAFVQSLSEREQVLEIVAEEAKGKIKLIAHVGCVSTAESQQLAASAKRYGFDAVSAVTPFYYPFSFEEHCDHYRAIIDSADGLPMVVYNIPALSGVKLTLDQINTLVTLPGVGALKQTSGDLYQMEQIRREHPDLVLYNGYDEIFASGLLAGADGGIGSTYNIMGWRYQGIVKALKEGDIQTAQKLQTECNKVIDLLIKTGVFRGLKTVLHYMDVVSVPLCRKPFGPVDEKYLPELKALAQQLMQERG [P0A6L4]”, the “total protein half-life in vivo” value by setting is: under setting [1], 2.77 ± 0.23 h; under setting [2], 1.88 ± 0.19 h; under setting [3], 3.01 h; under setting [12], 2.66 h; under setting [4], 1.84 ± 0.085 h; under setting [11], 2.81 ± 0.23 h. Moreover, the “total protein half-life in vivo” value was 3.81 ± 0.35 h under setting [5]; 5.83 ± 1.4 h under setting [6]; 2.28 h under setting [7]; 2.1 ± 0.3 h under setting [8]; 4.43 ± 0.18 h under setting [9]; 8.79 h under setting [10].
As to “MKFWRPGITGKLFLAIFATCIVLLISMHWAVRISFERGFIDYIKHGNEQRLQLLSDALGEQYAQHGNWRFLRNNDRFVFQILRSFEHDNSEDKPGPGMPPHGWRTQFWVVDQNNKVLVGPRAPIPPDGTRRPILVNGAEVGAVIASPVERLTRNTDINFDKQQRQTSWLIVALATLLAALATFLLARGLLAPVKRLVDGTHKLAAGDFTTRVTPTSEDELGKLAQDFNQLASTLEKNQQMRRDFMADISHELRTPLAVLRGELEAIQDGVRKFTPETVASLQAEVGTLTKLVDDLHQLSMSDEGALAYQKAPVDLIPLLEVAGGAFRERFASRGLKLQFSLPDSITVFGDRDRLMQLFNNLLENSLRYTDSGGSLQISAGQRDKTVRLTFADSAPGVSDDQLQKLFERFYRTEGSRNRASGGSGLGLAICLNIVEAHNGRIIAAHSPFGGVSITVELPLERDLQREV”, the “total protein half-life in vivo” value amounted to 6.52 ± 0.079 h under setting [1]; 6.22 ± 0.26 h under setting [2]; 6.4 ± 0.69 h under setting [3]; 6.08 ± 0.73 h under setting [12]; 5.49 ± 0.43 h under setting [4]; 3.33 ± 0.098 h under setting [11]. The “total protein half-life in vivo” value under setting [6] came to 11.3 ± 2.3 h; the “total protein half-life in vivo” value under setting [7] was 6.23 ± 0.92 h; the “total protein half-life in vivo” value under setting [8] turned out to be 12.9 ± 0.13 h; the “total protein half-life in vivo” value under setting [9] came to 6.86 ± 0.52 h; the “total protein half-life in vivo” value under setting [10] came out at 12.1 ± 1.4 h.
